# Data published in the supplement of paper PMC12042874.
# ± gives the uncertainty stated by the source.
# Assay: amyloid nucleation score (Sup35N fusion, yeast selection) (log enrichment); library NNK1; higher = more nucleation; inactive = no reads after selection
# Outline: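 Using DiMSum, nucleation scores were taken as the log enrichment of output over input reads, centred on the mode score of non-aggregating sequences. The input and output reads came from Illumina sequencing of plasmid inserts, with sequences under 100 input reads excluded. The yeast were psi-negative, expressed Sup35N fused to peptides of 20 random codons, were induced with 100 μM copper sulfate for 24 hours, and were grown 7 days at 30°C on medium lacking adenine and uracil.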
row,Substance,amyloid nucleation score
1,YGSSAL,-0.419 ± 0.23
2,MLGDAIMGM,1.09 ± 0.57
3,KRTLYSSIRF,1.74 ± 0.15
4,YLELLPAYRLFTGLVVLLMI,0.736 ± 0.13
5,SAHHLVIRFGMLYPREQHCL,0.299 ± 0.43
6,MKNFPLYSCP,-0.66 ± 0.69
7,VPTCMRVYIRGNSHNGMLAA,1.1 ± 0.4
8,RWCVVSEKTFCINYTRLSFA,0.888 ± 0.23
9,MHYRGKFLHDHWHESH,-0.485 ± 1.1
10,VTGWFYAGILYAFLYSQVLF,0.171 ± 1.2
11,VCFALSI,-0.098 ± 0.46
12,KGLCDNVMDLVRLKGGSEAG,0.443 ± 0.42
13,FDSLVSREFVP,-0.887 ± 1.5
14,DRRYVKLLRLYCCILECTKV,-0.18 ± 0.38
15,FSVLVPMYK,-0.361 ± 0.6
16,FSGQAITLVCWIVGQILPFS,inactive
17,LISHPFDPLIKVGDIQMYSF,0.012 ± 0.61
18,TRDTLIWFGRFGSMTDWCSW,0.192 ± 0.63
19,SNRCSPDMESDVHSVKELYR,0.762 ± 0.41
20,KLIRYYRFACVMSFRVFYSF,inactive
21,EALLWTEGMWHSSGGLYSNV,0.261 ± 0.27
22,INRSSVESLVLTDLKHWTSG,0.504 ± 0.49
23,FYKLVSLREIGMIQVIRGLD,-0.395 ± 0.47
24,ISWVSPDLVLSYPVYQPDGL,1.93 ± 0.23
25,FSNRWFC,-0.578 ± 0.31

row,Substance,amyloid nucleation score
1,TANTLRYSFCAT,-0.213 ± 0.32
2,LLRVTEYLIIRPCSVFVINR,-0.459 ± 0.36
3,IFGYMSGS,0.543 ± 0.63
4,TDFPELWSNLFQPNGFRYGL,0.114 ± 0.92
5,RCLQKPMRLRSQKIKQCVLR,-0.341 ± 1.4
6,ASYRKCLLCIRLNC,-0.753 ± 0.86
7,AGLPRSGSIQRDYREKVWAA,-0.194 ± 1.3
8,ASHLIYCFEARASLILL,0.686 ± 1.1
9,LCVSCARVKLLNRT,-0.144 ± 0.55
10,HRNWCCCCSCWSRLKMHLEL,-1.32 ± 0.64
11,LDEYINNEDSMFLCGILLSS,0.2 ± 0.3
12,SCFTTF,-1.54 ± 1.2
13,RDRDVEFTNDL,0.614 ± 0.75
14,NSDNSGWWRLLYIVESGISS,0.019 ± 1.4
15,PHIIFNVVTITYMISALRHV,3.49 ± 0.09
16,CDNGPLLIVGVRHRTRACVT,0.861 ± 0.38
17,LISRIS,0.303 ± 1
18,MYIFVDIFAAQLVTRWKGFE,-0.97 ± 1.9
19,HCLSFMIFESNLIIFMNRIR,0.222 ± 0.2
20,ICFFGLDVNFTRLSTVTRFT,2.66 ± 0.16
21,MQNRCSCWNFECRAPW,1.06 ± 0.33
22,KVLSYWDVSWGMASRFVSCY,0.724 ± 0.49
23,LMASDVT,0.127 ± 0.43
24,YQSLVMFMEPDSRVLRVCRA,0.104 ± 0.69
25,TWAVSNLSRV,-1.61 ± 0.59

row,Substance,amyloid nucleation score
1,RVCCWHFTFVTVCCKLLSMT,1.93 ± 0.23
2,VVVFDKR,-0.041 ± 1
3,MFTWEL,0.436 ± 1.2
4,AFYRAFTPCISVPIRND,0.765 ± 0.46
5,QFPERWDPFLPMSRASRYYH,0.865 ± 0.69
6,LSFCDTQRMWSSDG,0.483 ± 0.85
7,PTAEV,0.545 ± 0.76
8,SLWFTYCQ,0.751 ± 0.38
9,DNAYDRVGTQGSAWFCGDCL,-0.655 ± 0.64
10,CRLFVFPF,-0.336 ± 1.4
11,SPIMEKACVD,-0.053 ± 1.6
12,FRGFVVGGGT,-0.664 ± 0.61
13,LEAMPMCGEELRSLYTMVNV,0.552 ± 0.42
14,VTWVWFGVLVCFRRDGTLTY,0.676 ± 0.85
15,RMYIHMYS,1.32 ± 0.33
16,LFRSRRLVCDMKFHWTFLYR,-0.853 ± 0.5
17,GSWCSRIK,0.958 ± 0.35
18,RFRFNWLNSQNLQRFVGTFK,0.433 ± 0.3
19,FLHFVYRI,-0.578 ± 1
20,YSDSMTIKRDSLWVIGTLEL,1.94 ± 0.21
21,FASMIFSRASSSSDNIFFRN,0.361 ± 0.22
22,FYVPDWYNCSCIIWGRDACA,4.19 ± 0.056
23,CSHGNYHITCCPHAFFMTAI,4.91 ± 0.098
24,FIIWHELWKVMWSSTALSLD,0.769 ± 0.69
25,CETVG,inactive

row,Substance,amyloid nucleation score
1,CNISAITRFTEIWSRVTSVF,1.59 ± 0.8
2,VQLRLMDRNREHYGYEESTR,0.22 ± 0.43
3,LICAAAKLIHGWGNKWIYVT,-0.368 ± 1.7
4,KVFGTRPSQCLGFN,-0.806 ± 0.65
5,LAWTSRDWRKFEYIMGIWGI,-1.01 ± 2.4
6,GMGGGICSSEKMRCGNVEGV,-0.857 ± 0.34
7,NEFVDQFSEHFGRVGEFPAW,-0.316 ± 0.4
8,NNTFQIVLRFSGRHIDFNRR,7.639 ± 0.064
9,LLLVCMHGSFAMYMPLNNRW,0.922 ± 0.93
10,LQKFMLV,0.638 ± 0.53
11,RVHSIDENVWMVQGQNSRAG,3.73 ± 0.16
12,NLSAVRLAYLPCVSHTHCAV,0.875 ± 0.45
13,ASFSNCWG,0.486 ± 0.32
14,ISQYILSHLCQFIVSIGLAT,-0.454 ± 0.88
15,LRWYTQGMVLLEDRPCRCYN,-1.01 ± 0.41
16,SSTLFMKSYIFDPQKLNSPP,0.375 ± 0.42
17,FSHAGD,-0.494 ± 0.71
18,HSKLFFLWHPWWL,inactive
19,RILKMYTYVLTMADHVLNKS,0.21 ± 0.2
20,AWKGWFLMGYCGDRVMWDWR,-0.131 ± 0.73
21,RCISIRAYVTLFRNEYLCSN,4.86 ± 0.1
22,QLEDAVKMGLVEFEGRSHGS,0.78 ± 0.29
23,DFPVAIVDLRVCWSYLL,0.526 ± 0.68
24,YIIYWGAQLSILHENSPSFG,0.354 ± 0.33
25,NACFSIKQTYWNVT,0.537 ± 0.34

row,Substance,amyloid nucleation score
1,FLMFQGSYIYRNTGFYSSSD,-0.176 ± 0.95
2,IVRQYANLGRCCRTGVVYFQ,0.386 ± 0.63
3,AEHLICLGYGQRWGNYTGLP,0.164 ± 0.62
4,EYLAFDVPNWVGFLGSLWNM,-0.064 ± 0.8
5,NALASLKVMILDPTMELCCA,0.996 ± 0.9
6,LYSFNGN,inactive
7,TCLADLDWSRGGGYYPHRLC,0.372 ± 1.2
8,FSFSIAMVNLVEDATVDCAG,-0.048 ± 0.31
9,TRTAGRSVCPVIQLMSWAAY,0.277 ± 0.44
10,AVLHLSDCERNYFTFTVNCG,6.207 ± 0.049
11,CFLMNLVAYFVFLRTLS,1.49 ± 0.56
12,FFRVLFFTFLAWYVELKWQL,-0.201 ± 0.78
13,AFRSRFVIFHDGIRVLGYAD,-1.13 ± 2.1
14,KVASSDMSDLSTH,inactive
15,IWGNVSLIRGFCPVKLWSQR,-0.082 ± 0.46
16,DDWAGLKFSYLWSVCCKWWD,2.52 ± 0.15
17,HPYIWSVPDYKPFRAQAARV,-0.029 ± 1.6
18,GEERFYSLKYCCKGRLWRPG,0.179 ± 0.43
19,RINSGHIK,0.247 ± 0.33
20,LFMLSIHFGVHILSRLW,1.57 ± 0.16
21,HSFFMFP,-0.39 ± 0.73
22,SLFKRILYHVSGFRYCCTSV,-1.01 ± 1
23,ASNTANIPYGII,0.489 ± 0.32
24,FPCLTSSTSGYWSLI,1.32 ± 0.12
25,LILLLFEGFLLP,0.246 ± 0.63

row,Substance,amyloid nucleation score
1,AFRCCMFAFVFCSSGDSRAE,7.392 ± 0.056
2,FVIFSIELCGHRATSSSFNL,5.565 ± 0.047
3,FRALKLEAIPAKVGAPYLVP,0.045 ± 0.4
4,HSVSRCLVNEGNGFSFCKDP,1.45 ± 0.39
5,GHLWWSVLLVPLFTVGSTSV,0.399 ± 0.56
6,GRSAVAFISPPLSLRIAQCP,0.252 ± 0.28
7,HSDCRFRKLGRTHTSMRVCC,0.096 ± 0.49
8,EHFMSTCKPPDGE,0.927 ± 0.84
9,MCLLKGGSLVIVCGSGH,5.76 ± 0.061
10,SEGKHNCKLT,-0.635 ± 0.95
11,VYRIWSSSGNYKEVYAHRAL,0.947 ± 0.93
12,RHVYW,0.551 ± 0.39
13,STKWLFGKNGVSLYLLSRRR,2.58 ± 0.13
14,ILWLVMWVWTSRFVRCRRHS,-1.94 ± 2.4
15,FMRPVYHYMPSMTSYVSLDT,inactive
16,IFNML,-0.083 ± 0.93
17,FIAQLYVNEMFDSLTLRRGD,0.415 ± 0.33
18,TSSPSVTYLLRYRLQWTLHN,0.035 ± 0.76
19,LRYILFKNPSPNNIESL,-0.194 ± 0.53
20,KGDVPGYARCEVKTVRTFWM,0.231 ± 0.41
21,GYSAYRFGQCMSETGRRRIH,1.42 ± 0.72
22,GSADSFRGYGCFILVKATWY,0.717 ± 0.46
23,GFRLMLFVRTM,1.04 ± 0.45
24,CSWLSFVEEVGLGSERGVRG,-0.629 ± 1
25,DRFLCGWSLPSC,-0.656 ± 0.61

row,Substance,amyloid nucleation score
1,FVMLGWFSRNIGLYEVFVFT,0.502 ± 0.36
2,GLTPMRHN,-1.01 ± 1.1
3,HYVFRHAWDSSFDVNVGLAQ,0.564 ± 0.9
4,ISHLDG,-1.04 ± 2.4
5,DVWKAGSVGPRQLVRRGGRR,0.259 ± 0.81
6,HWTYWIRI,-0.084 ± 1.6
7,DYEPLASDAREEDFCNARRG,-0.677 ± 0.64
8,RTFGYGHHIAGGCRDYRVYR,-0.373 ± 0.62
9,SSSVVSV,0.102 ± 0.33
10,CWQSGMCNRSRMQAVRVPHD,0.698 ± 0.56
11,SWCLKDMSNMLLASIRRFVL,inactive
12,FQMLF,-0.752 ± 0.7
13,TSPEVLRAIVSTSLFCCILR,-0.724 ± 2.4
14,WVSNL,0.296 ± 0.44
15,ALGVHR,1.76 ± 0.61
16,EMGSSLYTRHGNVRSLAFGW,0.242 ± 0.48
17,DIGHFHGTDMGCNIF,inactive
18,PSSLLNMDTTRGYHDPEWGI,-0.381 ± 0.3
19,KKPQSGSCTRLSSESYKSVY,0.464 ± 0.82
20,LVDSNFCVNVCAGQSRRVYG,-0.712 ± 0.8
21,DGTNAYV,-0.986 ± 0.56
22,KAPKYRDRRVGVNVKYWYMP,0.058 ± 0.66
23,NNRNQAMKVYNLVSLIEAKR,-0.218 ± 1
